# Assay results from a protein production outcome set (Wang et al. 2014).
# Test: label from the status in PepcDB records
# 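Also: failed if final PepcDB status was selected cloned or expressed and not failed if soluble or beyond.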
row,Sequence,protein production
1,MISAWLLVLISITYISLLFLIAWAGDRHPGLYKRRLARTHIYGLSLAVYFTSWTFYGAVGRATQEGLAFLPIYLGPLLVFIFFAPLLRRIIYISKRNNSTSIADFIASRYGKSQVLAAMVAIFALIGSVPYIALQLKAIALGFNVLSGTGDSYQELSTAAWNDSAWYITLALAVFTVLFGTRHLESTEHHRGMIQAVAFESLIKLIAFVAVGLFVGYGLYDGFGDLFTRVREADLMGTLTTESLEAPAFLTQTLVAMLAIICLPRQFHVMVVENTDHRDFEVARWAMPIYLIIASAFVIPIAAAGLLSTHLAGSDPDIVILQLPIMAGEHWLAVLAFLGGGSAAAAMVIVCSVAIATMVSNEIIMPGLLKFFRPGMNRRTDLSFLLLTIRRVAIFVVLLTAYGFYRMAGEDYSLTAFGLLSFAAAAQFGPALVGGILWRQGNFTGAAWGLGLGFLMWCYTLLLPALVSTGWVADTLIEHGLFGWNWTRPTALFGSELDQISHGILWSLGVNTGAYILLSLITRQRIREKIQIAAFFHDAQPKAENAQHQSWQGEILTSDLQALTDRFMGEERSESIFRNYERRNAIRLYPQRPASTHLMKYIERQLASVIGASTARVVLESTLTGRDMQIEDVVSIVDEASQAMTFSRELLQSAIENISLGVSVVNHQQQLVVWNHRYLELFNYPKGFVRVGRPVEDLMRYNLTNANLSARRIDDIVENRCNSMREGKPMSYERQRPDGTVVRVDGSPIPGGGYVTTFQDITAMRRTEQALKETNIYLEQRVRERTQELQVINEQMLKAKSVAEQANQSKTRFLASASHDLLQPLNAARLFTSALSGKVNEGETRDLVDHIDSSLGAAEEIISTLLDISKLDAGALEPDIGVFPVNELLRHLATEFSAIAKDQGLELHVVPSTAWVRSDAKLLRRVVQNFLSNAIRYTASGKILMGCRRLKGYLRIEVWDTGPGMSDDQLNHIFEEFRRFQHGRDKKGLGLGLAIVDRISGMLNHPVTVHSIQGKGSVFGITVPVAPADQSRLDAQKSGSSSRRVSNLGGLHVLCIDNDAAILQGMVALLGNWQCDVTAAESLDDALTKLDGRQPDIILADYQLDDNRNGLDAMDSIREHLGNDIPGILITGYMAPEVRDDAGNRGYQVLYKPVKPAALRALVNKLLKQKRS,failed
2,MNSPSHLEVREGADINLYNQILIPLYGADIRDSVVQYGLSLAETYDAALHVLYIQDEERTEVESDQVTKQEEWDAAAVIEPVVDQAHSLGLNVIPAVDSGHSPGVIREYAEENDIDLLVHQKPTQTRLARILRRDVSSHIIQNISLPVLTIPDMDPSDPVGELSTSQFTDILVPTDGYDEASVAFKHGLQIAKRYDATLHGLFIISEQSYSSRPGFTWEEVTDSWEQRGTRLLEDITEKAATLDVPVRTTLRFGQPQQEILKYTEVTDIDLVTMGTRGLTGIRRLLQGSVAAQVIEEADYPVLTINRRTAELKKHPYTFLRKTNQNRKSRLY,failed
3,MKTFIWNSNYETGVAKVDDQHQCLVEIINEYSHLLANNTTTETDIELTLNKLIDYTKFHFKDEEQLMYSVGLDTRHITHHEKLHRDILDEISTLLSDQVTDKLSIARYILDLIIHWLVYHILGTDMNMAKLEHHHHHH,failed
4,MEFSLIADTVTVCTAKQGIAFGKSLLQRLDLANHISFADSVVDHQSPGGGIVQASAIIFPVDAIAPPPVRSSSYKTIRRIRKKRRTRRVSFGGDGDDAGDFGRFLLEGDFGGSDGPFGFGGGGNDGGGKGWNYGGGGGGFGRDNWDGSSFSSWSDPAMEFVYEVICWIALSNCVHFAFKRIVRIVTDGEREKLNIALSPVC,failed
5,VAPLGLSVPSDVELPPTAKMHAIIERTASFVCRQGAQFEIMLKAKQARNSQFDFLRFDHYLNPYYKFIQKAMKEGRYTVLAENKSDEKKKSGVS,not failed
6,MSNHSSSIPELSDNGIRYYQTYNESLSLWPVRCKSFYISTRFGQTHVIASGPEDAPPLVLLHGALFSSTMWYPNIADWSSKYRTYAVDIIGDKNKSIPENVSGTRTDYANWLLDVFDNLGIEKSHMIGLSLGGLHTMNFLLRMPERVKSAAILSPAETFLPFHHDFYKYALGLTASNGVETFLNWMMNDQNVLHPIFVKQFKAGVMWQDGSRNPNPNADGFPYVFTDEELRSARVPILLLLGEHEVIYDPHSALHRASSFVPDIEAEVIKNAGHVLSMEQPTYVNERVMRFFNA,not failed
7,MSGLDPARSILQGSAEGPVIATGEALSFWGGVDPATGCVIDVHHPLHGVPLTGSILMMPSSRGSCTGSGVLLDLVLTGRGPAALVFSEPEDVLTLGALIASEMFGKPLPVL,failed
8,MSLIASIGELLIDLISVEEGDLKDVRLFEKHPGGAPANVAVGVSRLGVKSSLISKVGNDPFGEYLIEELSKENVDTRGIVKDEKKHTGIVFVQLKGASPSFLLYDDVAYFNMTLNDINWDIVEEAKIVNFGSVILARNPSRETVMKVIKKIKGSSLIAFDVNLRLDLWRGQEEEMIKVLEESIKLADIVKASEEEVLYLENQGVEVKGSMLTAITLGPKGFRLIKNETVVDVPSYNVNPLDTTGAGDAFMAALLVGILKLKGLDLLKLGKFANLVAALSTQKRGAWSTPRKDELLKYKEAREVLAEGHHHHHH,not failed
9,MDFGLATTLYPDEYNYQTDAYSPTSSPVDLVQVIQQLHASLDPRTVFACYGKVLGQHLPIQGVRLQSEQHKLSWGKRYGISLKRQIICGGTPLTLQYQLLTPLTPSQSICLQEIEPLLLQPLLNAMQYQEMSMQAMFDALTGLGNRHYYSQSLKNAVARAQRKQGSVSLIVLDLDNFKKLNDKYGHKCGDYILKEFGDIIRSSIRSTDQAFRIGGDEFVVIVQGNIHAAGLLCERIVSATNTHASFHQFGVSCSLGAAEASETMEAEQLYEQADKTLYQAKASGRNCYKLSPTQLS,failed
10,MGSVQLSGSGLVASLPPNHSFSHKTKLNKPNSYFFRSKHNAARTKTVRAISTAPASQPPAADEPDEPPAVDFAFVHSVLLPDGTPDVHWRRANGGQKLRDIMLDSNIELYGPYSKPLSNCAGVGTCATCMVEIVNGKELLNPRTDIEKEKLKRKPKNWRLACQTNVGNPDSTGLVVIQQLPEWKAHEWNIPKNIPNDDDLETST,failed
11,MKAQYFFWILFLIGFYWMIYLYQDFLMDALIAGLLCVGFFQVKVFLDKRFFNVVSSFLCVLILASVLIVPLYFIVYKSSNIIFEINFEKFSALIKWLKGIITENLSHFPTIHDGASKFLENFSAASITGYLLKISSYVGRYSLKLITDALFILGLLFFFFYYGERFYRYFLGVLPLGMNQSKKIFEEVAGILRIVLLTSLITVILEGVAFGVMIVWFGHDGWSLGILYGLASLVPAVGGALIWIPIAIYELYHGNVNEAIFIALYSILLISVLIDSVIKPILIVFIKKRIFKTTLKINEMLIFFSMIAGISQFGFWGIIVGPTITAFFIALLRLYENYFIQNEQKACE,failed
12,MEQDTQHVKPLQTKTDIHAVLASNGRIIYISANSKLHLGYLQGEMIGSFLKTFLHEEDQFLVESYFYNEHHLMPCTFRFIKKDHTIVWVEAAVEIVTTRAERTEREIILKMKVLEEETGH,failed
13,MHKIEQLLQTLAPKGVEFRKLGDIILSLKTGLNPRKFFKLNTPNANNYYVTVRELEEYTIKFTHQTDRIDDNALSLCLKRSNLEKDDIFYSLELEQ,failed
14,SLLDVAVSPDDRFILTADRDEKIRVSWAAAPHSIESFCLGHTEFVSRISVVPTQPGLLLSSSGDGTLRLWEYRSGRQLHCCHLASLQELVDPQAPQKFAASRIAFWCQENCVALLCDGTSVVYIFQLDARRQQLVYRQQLAFQHQVWDVAFEETQGLWVLQDCQEAPLVLYRPVGDQWQSVPESTVLKKVSGVLRGNWAMLEGSAGADASFSSLYKATFDNVTSYLKKKEERLQQQLEKKQRRRSPPPGPDGHAKKMRPGEATLSC,failed
15,MAESTRIGQESRVTLHFALKLEDGNVVDSTFDKQPASFKVGDGNLLPGFEQALFGLKAGDKRTLSILPEQGFGQPNPQNVQIMPRDQFQDMELAEGLLVIFNDAAKTELPGVVKAFDEQQVTVDFNHPLAGKTLAFEVEIIDVQPA,failed
16,MSPPLDHAWIAARIPHSGAMCLLDQVVTWDDTHIRCTTTSHRAPDNPLRAHGRLAAVCGIEYAAQAMAVHGAILGNAQDRPRAGFLASVRSVEAHVERLDTIEAPLTIEAERIGGDGNNVLYRFSVRCGERVLLTGRAAVVLDAAGLGLPDAGALAKANAQARLEHHHHHH,failed
